Here are results for two molecules from patent publication US20100196361A1, “Method of inhibition of vascular development using an antibody” (DYAX CORP., priority 2003, published 2010).

Where a chain is given by its changes, count along the chain named.

One test has as its target Tie1 (Homo sapiens, UniProt P35590). As to the kind of experiment: Immunoprecipitation of Tie1 from HUVEC and platelet lysates. Format: binding. The following applies: for immunoprecipitation of Tie1 from platelets: activated and inactivated platelets. How it is done:
The conclusion from this study was that platelets represent a large pool of Tie1 immunoreactivity which could present a problem for development of Tie1 as a therapeutic target. […] Both activated and inactivated platelets were tested. Anti-Tie1 antibodies B2, D11, E3, the goat polyclonal AF619 (R&D) and negative control antibodies anti-FITC and anti-Streptavidin were used. HUVECS were retrieved from culture dishes by trypsinization and platelets were prepared with the platelet GelSep kit (Biocytex, Marseille, France) kit according to the guidelines of the manufacturer. Per immunoprecipitation experiment 3-5×10^6 and 3×10^8 cells platelets were used for each antibody tested. Platelets and cells were washed with PBS and spun down at 1400 rpm for 4 minutes and supernatant was removed. Then cells were lysed in 1 ml lysis buffer containing 50 mM Tris HCL pH 7.5, 150 mM NaCl, 0.5% Deoxycholic acid (DOC) and 0.5% NP-40 for 5 minutes. The lysed cells were spin down for 10 minutes at 14.000 rpm and 5 μg/ml antibody was added to the supernatant and incubated at 4° C. on a rotator. 100 μl/sample protein A beads (Uppsala, Sweden) were washed 3 times with lysis buffer (centrifugation speed: 15 seconds, 2000 rpm) then cell lysates incubated with antibody were added for 30 minutes 4° C. Then beads were washed three times with washing buffer containing 50 mM Tris HCL pH 7.5, 400 mM NaCl, 0.5% DOC, 0.5% NP-40. Finally, beads are spun down and the pellets was resuspended in an equal amount in sample buffer to perform SDS-page and Western blotting. In Western blotting Tie1 was detected with the polyclonal goat anti-Tie1 antibody.
It has been reported that Tie1 is expressed on platelets (Tsiamis et al. (2000) J. Vasc. Res. 37(6):437). The possibility of platelet immunoreactivity with the E3 anti-Tie1 antibody was investigated by FACs analysis and immunoprecipitation studies. […] In addition, the effect of DX-2200 and DX-2210 on platelet agglutination and aggregation was investigated. […]

Another test relates to HUVEC. As to the kind of experiment: Flow cytometry on HUVEC control cells. It is filed as binding, human. How it is done: Specific binding of the Tie1 antibodies and of control Mabs to mouse endothelial cells was measured by flow cytometry analysis (FACSscan, Becton Dickinson, Oxnard, Epics, Coulter). Mouse endothelial cell lines MS1, Le-2, Bend3, SVEC (ATCC, Rockville) and Tie1 transfected Le-2 cells were stained. Cell staining was modified from existing protocols. About 200,000 cells were used in each experiment: after trypsinization, cells were washed one time in PBS and resuspended PBS, 10% heat inactivated human serum (incubation buffer). To test specificity, antibodies were incubated at different dilutions for 1 h at room temperature. Cells were spun down by centrifugation for 3 min at 611 g. Between incubations cells were washed twice with PBS. […] After the final incubation step bound antibodies were detected by means of flow cytometry on a FACSCan and Epics Altra (Becton Dickinson, Oxnard, Coulter) and results analyzed.
Intracellular Tie1 was measured as described above, except for the addition of Saponin to the incubation buffer to a final concentration of 0.1% during incubations. […] The binding pattern in mouse cell lines detected by flow cytometry is different from the binding pattern in HUVEC in that in mouse cells there is a greater cell surface staining than that compared to primary human endothelial cell lines. […]
In general terms: A flow cytometer gives signals particle by particle.

Sequence of Tie1 (P35590 22-1138): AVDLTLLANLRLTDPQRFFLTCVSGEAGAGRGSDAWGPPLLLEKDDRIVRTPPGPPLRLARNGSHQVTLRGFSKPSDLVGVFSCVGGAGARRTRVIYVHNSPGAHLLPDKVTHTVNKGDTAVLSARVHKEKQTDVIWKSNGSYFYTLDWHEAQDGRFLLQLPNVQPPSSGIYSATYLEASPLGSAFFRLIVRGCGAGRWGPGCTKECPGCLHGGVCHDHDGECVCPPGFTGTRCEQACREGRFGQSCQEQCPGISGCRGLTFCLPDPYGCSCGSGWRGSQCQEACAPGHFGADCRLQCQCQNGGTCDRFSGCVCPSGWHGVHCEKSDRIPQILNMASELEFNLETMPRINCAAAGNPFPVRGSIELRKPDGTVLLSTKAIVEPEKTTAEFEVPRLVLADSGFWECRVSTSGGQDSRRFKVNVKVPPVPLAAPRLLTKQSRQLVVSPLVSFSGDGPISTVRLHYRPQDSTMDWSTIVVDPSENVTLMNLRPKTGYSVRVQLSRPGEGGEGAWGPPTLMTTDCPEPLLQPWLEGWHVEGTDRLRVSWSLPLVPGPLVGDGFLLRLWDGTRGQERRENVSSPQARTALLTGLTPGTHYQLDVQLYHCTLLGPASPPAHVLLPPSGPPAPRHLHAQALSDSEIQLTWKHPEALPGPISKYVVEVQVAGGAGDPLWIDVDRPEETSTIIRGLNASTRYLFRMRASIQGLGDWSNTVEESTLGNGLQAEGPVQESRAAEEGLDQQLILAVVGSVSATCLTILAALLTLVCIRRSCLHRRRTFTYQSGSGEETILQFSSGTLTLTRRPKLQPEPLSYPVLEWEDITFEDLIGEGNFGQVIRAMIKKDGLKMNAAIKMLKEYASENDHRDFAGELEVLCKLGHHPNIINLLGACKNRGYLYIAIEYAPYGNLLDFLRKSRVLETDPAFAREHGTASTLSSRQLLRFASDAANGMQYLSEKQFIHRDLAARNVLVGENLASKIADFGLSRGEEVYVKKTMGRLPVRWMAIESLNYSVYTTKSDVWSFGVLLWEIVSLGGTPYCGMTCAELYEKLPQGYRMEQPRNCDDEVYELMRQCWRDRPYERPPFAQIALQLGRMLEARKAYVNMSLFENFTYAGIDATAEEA

B1: E3: human anti-Tie1 antibody from phage Fab library, reformatted as IgG; HC variable SEQ ID NO:114, LC variable SEQ ID NO:116 (antibody, V domains shown)
VH: EVQLLESGGGLVQPGGSLRLSCAASGFTFSMYGMVWVRQAPGKGLEWVSVISPSGGNTGYADSVKGRFTISRDNSKNTLYLQVNSLRAEDTAVYYCARAPRGYSYGYYYWGQGTLVTVSSASTKGPSVFPLAPSSKSTSGG
VL: DIQMTQSPLSLSASVGDRVTITCRASQGIGHYLAWYQQKPGKVPKLLIYTASTLQSGVPSRFSGSGSGTDFTLTINSLQPEDVATYYCQQFNSYPHTFGQGTRLDIK
modifications: IgG constant regions; Synthetically generated peptide
In the case of B1, in the test with Tie1 (5 μg/ml antibody, detection with polyclonal goat anti-Tie1), the “immunoprecipitation of Tie1 from HUVEC” value is given as “able to immunoprecipitate Tie1 in HUVEC”. For the same molecule, the “immunoprecipitation of Tie1 from platelets” value is on record as “not in platelets” in the test with Tie1 and “nor did it immunoprecipitate Tie1 from platelet extracts” in the test with Tie1 (listed as DX-2200).

B2: DX-2210: E3 antibody in which the light chain has been germlined (antibody, V domains shown)
VH: B1 VH
VL: B1 VL with L9S, N76S, D105E
In the case of B2, the “staining of HUVEC control cells” value in the test on HUVEC is given as “stained positively”.
